One data set deals with T1, hWH (Wuho, WDR4) (Homo sapiens, UniProt P57081 1-412).
T1 sequence: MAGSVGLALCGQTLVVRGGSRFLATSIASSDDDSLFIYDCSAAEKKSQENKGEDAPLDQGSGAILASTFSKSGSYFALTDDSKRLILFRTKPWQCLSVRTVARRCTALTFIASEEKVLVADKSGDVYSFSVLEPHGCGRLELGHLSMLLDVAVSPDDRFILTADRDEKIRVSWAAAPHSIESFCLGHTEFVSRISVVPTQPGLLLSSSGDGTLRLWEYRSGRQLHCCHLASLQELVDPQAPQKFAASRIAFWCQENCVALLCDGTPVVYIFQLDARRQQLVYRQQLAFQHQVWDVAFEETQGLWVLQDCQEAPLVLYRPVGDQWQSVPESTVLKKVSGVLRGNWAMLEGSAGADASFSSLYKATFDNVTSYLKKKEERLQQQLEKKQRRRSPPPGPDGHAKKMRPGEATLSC
Description: EMSA; hWH 25-1000 nM, no significant affinity; 50 nM DNA, 50 mM Tris pH 8, 50 mM NaCl, 37 C, 10 min, 20 ul; TBE-PAGE. As to conditions: protein: recombinant, tags: C-terminal His6 (pET23b), label: 5' fluorophore (FAM on oligo 1, or Cy5 on oligo 4). Background: Mobility shift assays separate free from complexed probe on a gel.

The target of another data set is FEN1 (Homo sapiens, UniProt P39748 1-380). Description: EMSA; no Mg2+ in binding buffer; FEN1 25-1000 nM; 50 nM DNA, 50 mM Tris pH 8, 50 mM NaCl, 37 C, 10 min, 20 ul; TBE-PAGE. The conditions noted are these: protein: recombinant, tags: C-terminal His6, label: 5' fluorophore (FAM on oligo 1, or Cy5 on oligo 4).
[1] abbreviates: double flap: 1:15-34 or 1:21-34 pairs with 2:1-14 (14 bp), 5' flap 20 nt, 3:1-16 pairs with 2:15-30 (16 bp), 3' flap 1 nt.
[2] abbreviates: fork: 14 bp duplex (1:21-34 with 2:1-14), 5' arm 20 nt, 3' arm 16 nt.

Chain of FEN1 (P39748 whole entry): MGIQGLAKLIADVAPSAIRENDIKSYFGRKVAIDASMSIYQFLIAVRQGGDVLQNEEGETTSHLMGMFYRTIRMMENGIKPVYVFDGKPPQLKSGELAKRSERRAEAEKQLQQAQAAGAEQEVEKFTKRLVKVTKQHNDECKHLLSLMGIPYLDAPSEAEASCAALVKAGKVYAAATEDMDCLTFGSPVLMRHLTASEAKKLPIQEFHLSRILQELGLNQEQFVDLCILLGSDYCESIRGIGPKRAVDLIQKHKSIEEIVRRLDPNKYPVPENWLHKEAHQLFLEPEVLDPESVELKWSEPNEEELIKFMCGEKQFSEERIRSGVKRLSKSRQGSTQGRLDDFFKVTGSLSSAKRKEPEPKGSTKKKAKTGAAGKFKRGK

B1: Double-flap substrate (dsDNA)
DNA 1: GATGTCAAGCAGTCCTAACTTTGAGGCAGAGTCC
DNA 2: GGACTCTGCCTCAAGACGGTAGTCAACGTG
DNA 3: CACGTTGACTACCGTCC
B1: the binding result with hWH (Wuho, WDR4) (setting [1]) was “no binding”; with FEN1 (setting [1]), “binds”.

B2: Y-shape substrate (dsDNA)
DNA 1: GATGTCAAGCAGTCCTAACTTTGAGGCAGAGTCC
DNA 2: GGACTCTGCCTCAAGACGGTAGTCAACGTG
As to B2, the binding result is recorded as “no binding” with hWH (Wuho, WDR4) (setting [2]) and “binds” with FEN1 (setting [2]).

Source of the values: PMC4709127, “Wuho Is a New Member in Maintaining Genome Stability through its Interaction with Flap Endonuclease 1”.
